Consider 2 molecules from patent US20080125354A1 (FLORIDA ATLANTIC UNIVERSITY, published 2008).

Experiment [1] has as its target MMP-13 (collagenase 3) (UniProt P45452 20-471, limits assumed). Put plainly: cell-based or functional assay.
For experiment [2], the target named is MMP-8 (neutrophil collagenase, collagenase 2) (UniProt P22894 21-467, limits assumed). As to the kind of experiment: cell-based or functional assay.
Sequence of MMP-8 (neutrophil collagenase, collagenase 2) (P22894 21-467 limits assumed): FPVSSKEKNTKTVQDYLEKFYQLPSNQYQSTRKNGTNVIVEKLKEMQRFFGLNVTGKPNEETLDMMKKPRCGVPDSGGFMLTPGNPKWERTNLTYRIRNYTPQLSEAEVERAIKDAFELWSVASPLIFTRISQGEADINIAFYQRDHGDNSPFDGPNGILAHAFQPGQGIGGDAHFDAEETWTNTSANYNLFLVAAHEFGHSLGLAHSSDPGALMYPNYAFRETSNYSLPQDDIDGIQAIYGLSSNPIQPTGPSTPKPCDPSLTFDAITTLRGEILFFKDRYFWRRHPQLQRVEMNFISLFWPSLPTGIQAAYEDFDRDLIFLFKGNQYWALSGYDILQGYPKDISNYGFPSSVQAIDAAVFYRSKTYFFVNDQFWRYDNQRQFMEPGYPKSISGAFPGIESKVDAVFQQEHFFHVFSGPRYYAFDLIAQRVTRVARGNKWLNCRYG

B1: phosphinate-containing triple-helical peptide-amphiphile f3, C6-(Gly-Pro-Hyp)5-Gly-Pro-Pro-[Gly~Val]-Val-Gly-Glu-Gln-(Gly-Pro-Hyp)5-NH2 (peptide)
peptide: not shown
modifications: N-terminal hexanoic acid (C6); Hyp (4-hydroxyproline) at 3, 6, 9, 12, 15, 27, 30, 33, 36, 39 (written P in letters); Gly19-Val20 peptide bond replaced by phosphinate psi{PO2H-CH2}; hypothesised phosphino Gly-(D)Val analog; C-terminal amide
In the case of B1, the “IC50, inhibition of enzyme activity (fluorogenic substrate)” value in experiment [1] was roughly 10 µM; in experiment [2], roughly 50 µM.

B2: phosphinate-containing triple-helical peptide-amphiphile f4, C6-(Gly-Pro-Hyp)5-Gly-Pro-Pro-[Gly~Val]-Val-Gly-Glu-Gln-(Gly-Pro-Hyp)5-NH2 (peptide)
peptide: not shown
modifications: N-terminal hexanoic acid (C6); Hyp (4-hydroxyproline) at 3, 6, 9, 12, 15, 27, 30, 33, 36, 39 (written P in letters); Gly19-Val20 peptide bond replaced by phosphinate psi{PO2H-CH2}; hypothesised phosphino Gly-(L)Val analog; C-terminal amide
notes: One of two RP-HPLC-separated diastereomers of the C6-lipidated peptide; Triple helix of three identical strands by self-assembly; also called Peptide-amphiphile 2; peptide-amphiphile mimic
Consider B2, for which the “IC50, inhibition of enzyme activity (fluorogenic substrate)” value in experiment [1] is roughly 10 µM; in experiment [2], roughly 50 µM.
